In patent US20210230266A1 (SINGAPORE HEALTH SERVICES PTE, published 2021):

T1: Human IL-11 (human, UniProt P20809 22-199)
T1 construct: Recombinant human IL-11 (GenScript Cat. No. Z03108-1) or IL-11 secreted by human cells; the mature form is said to have 178 residues; also called recombinant human IL-11; endogenously produced IL-11
T1 sequence: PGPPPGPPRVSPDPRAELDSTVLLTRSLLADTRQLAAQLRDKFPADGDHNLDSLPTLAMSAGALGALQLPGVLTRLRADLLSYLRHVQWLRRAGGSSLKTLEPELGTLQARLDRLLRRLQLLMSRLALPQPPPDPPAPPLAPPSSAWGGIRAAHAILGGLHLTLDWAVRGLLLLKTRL

T2: Mouse IL-11 (mouse, UniProt P47873 22-199, limits assumed)
T2 construct: also called murine IL-11; recombinant murine IL-11
T2 sequence (looked up): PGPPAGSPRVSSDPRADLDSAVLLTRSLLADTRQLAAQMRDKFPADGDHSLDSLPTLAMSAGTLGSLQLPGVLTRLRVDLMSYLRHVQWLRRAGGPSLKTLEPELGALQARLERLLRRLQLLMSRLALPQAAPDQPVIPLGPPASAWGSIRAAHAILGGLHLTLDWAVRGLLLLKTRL


How the values were obtained:
Human IL-11 [1] = biological target: T1, Human IL-11; experiment: ELISA on coated recombinant human IL-11 (100 ng/well), scFv-Fc
Experimental: The light chain shuffled anti-IL-11 antibodies were analysed to determine the EC50 for binding to human IL-11 by ELISA according to standard methods. Briefly, wells of microtiter plates were coated with recombinant human IL-11 (100 ng/well), scFv-Fc comprising the VH and VL domains of the clones were added in a dilution series and antibody binding was detected using a polyclonal antibody detection system.

Human IL-11 [2] = biological target: T1, Human IL-11; experiment: cell-based or functional assay
Mouse IL-11 = biological target: T2, Mouse IL-11; experiment: ELISA
Experimental: (§1) The soluble scFv were produced by recombinant expression in E. coli, and analysed for their ability to bind to human IL-11 and murine IL-11 by ELISA. Briefly, the respective antigen was coated to wells of an ELISA plate, the cell culture supernatant containing the respective scFv was added at a 1:2 dilution, and binding was detected.

Human IL-11 [3] = biological target: T1, Human IL-11; experiment: ELISA
Experimental: as §1

Binder | EC50 (Human IL-11 [1]) | MMP2 production, Experiment 1 (human atrial fibroblasts + TGFB1) (Human IL-11 [2]) | MMP2 production, Experiment 2 (human atrial fibroblasts + TGFB1) (Human IL-11 [2]) | mIL11 - average signal (Mouse IL-11) | hIL11 - average signal (Human IL-11 [3])
YU100-B03 (antibody) QVQLVQSGGGVVQPGRSLRLSCAASGFTFSSYGMHWVRQAPGKGLEWVAVISYDGSNKYYADSVKGRFTISRDNSKNTLYLQMNSLRAEDTAVYYCAKIGATDPLDYWGQGTLVTVSSGSASAPKLEEGEFSEARVQSVLTQPRSVSGSPGRSVTISCTGTSSDVGGYNYVSWYQQHPGKAPKLTLYDVVKRPSGVPDRYSGSKSGNTASLTISGLQAEDEADYYCCSYAGGYTWVFGGGTKVTVV | 0.025 µg/mL | 47.3 ng/mL | 46.8 ng/mL | 0.321 | 0.227
YU100-B06 (antibody) QVQLVESGGGVVQPGRSLRLSCAASGFTFSSYGMHWVRQAPGKGLEWVAVISYDGSNKYYADSVKSRFTISRDNSKNTLYLQMNSLRAEDTAVYYCAKIGATDPLDYWGQGTLVTVSSGSASAPKLEEGEFSEARVQSALTQPASVSGSPGQSITISCTGTSSDVGGYNYVSWYQQHPGKAPKLMIYDVSKRPSGVPDRFSGSKSGNTASLTISGLQAEDEADYYCNSYAGSYTWVFGGGTKLTVL | 0.033 µg/mL | 47.6 ng/mL | 49.6 ng/mL | 0.404 | 0.209
YU100-B07 (antibody) QVQLVESGGGVVQPGRSLRLSCAASGFTFSSYGMHWVRQAPGKGLEWVAVISYDGSNKYYADSVKGRFTISRDNSKNTLYLQMNSLRAEDTAVYYCAKIGATDPLDYWGQGTLVTVSSGSASAPKLEEGEFSEARVQSALTQPRSVSGSPGQSVTMSCTGTSRDVGGYNYVSWYQHHPGKAPKLMIYDVSKRPSGVPDRFSGSKSGNTASLTISELQAEDEADYYCCSYAGSYTWVFGGGTKLTVL | 0.023 µg/mL | 55.9 ng/mL | 47.4 ng/mL | 0.354 | 0.167
YU100-B08 (antibody) EVQLVQSGGGVVQPGRSLRLSCAASGFTFSSYGMHWVRQAPGKGLEWVAVISYDGSNKYYADSVKGRFTISRDNSKNTLYLQMNSLRAEDTAVYYCAKIGATDPLDYWGQGTLVTVSSGSASAPKLEEGEFSEARVQSALTQPASVSGSPGQSITISCTGTSSDVGGYNYVSWYQQHPGKVPRLLIYDVSNRPSGVSTRFSGSKSGNTASLTISGLQGEDEAEYYCSSFTSSTTWVFGGGTKLTVL | 0.021 µg/mL | 55.3 ng/mL | 40.6 ng/mL | 0.423 | 0.209
YU100-D02 (antibody) QVRLVQSGGGVVQPGRSLRLSCAASGFTFSSYGMHWVRQAPGKGLEWVAVISYDGSNKYYADSVKGRFTISRDNSKNTLYLQMNSLRAEDTAVYYCAKIGATDPLDYWGQGTLVTVSSGSASAPKLEEGEFSEARVQSALTQPRSVSGSPGQSVTISCTGTSGDVGTYNYVSWYQQHPGKAPKLMIFDVSKRPSGVPDRFSGSKSGNTASLTISGLQAEDEADYYCNSYAGSYTWVFGGGTKLTVLGQPKAAPSVTLFPPSS | 0.022 µg/mL | 49.6 ng/mL | 42.2 ng/mL | 0.346 | 0.268

Now from value to binder:

EC50 (Human IL-11 [1]) | MMP2 production, Experiment 1 (human atrial fibroblasts + TGFB1) (Human IL-11 [2]) | MMP2 production, Experiment 2 (human atrial fibroblasts + TGFB1) (Human IL-11 [2]) | mIL11 - average signal (Mouse IL-11) | hIL11 - average signal (Human IL-11 [3]) | Binder
0.042 µg/mL | 53.3 ng/mL | 48.8 ng/mL | 0.284 | 0.223 | YU100-D05 (antibody) QVQLQQSGGGVVQPGRSLRLSCAASGFTFSSYGMHWVRQAPGKGLEWVAVISYDGSNKYYADSVKGRFTISRDNSKNTLYLQMNSLRAEDTAVYYCAKIGATDPLDYWGQGTLVTVSSGSASAPKLEEGEFSEARVQSALTQPASVSGSPGQLITISCTGTNSDVGGYNYVSWYQQHPGKAPKLMIYDVSNRPSGVSNRFSGSKSGNTASLTISGLQAEDEADYYCCSYAGSYTWVFGGGTKLTVLGQPKAAPSVTLFPPSS
0.038 µg/mL | 51.2 ng/mL | 47.2 ng/mL | 0.475 | 0.447 | YU100-D11 (antibody) QVQLVQSGGGVVQPGRSLRLSCAASGFTFSSYGMHWVRQAPGKGLEWVAVISYDGSNKYYADSVKGRFTISRDNSKNTLYLQMNSLRAEDTAVYYCAKIGATDPLDYWGQGTLVTVSSGSASAPKLEEGEFSEARVQSALTQPRSVSGSPGQSVTISCTGTSSNVGGYNYVSWYQQHPGKAPKLMIYDVSKRPSGVPDRFSGSKSGNTASLTISGLQAEDEANYYCASYAGNYNWVFGGGTKLTVLGQPKAAPSVTLFPPSS
0.03 µg/mL | 59.3 ng/mL | 51.8 ng/mL | 0.238 | 0.207 | YU100-E01 (antibody) QVQLQQSGGGVVQPGRSLRLSCAASGFTFSSYGMHWVRQAPGKGLEWVAVISYDGSNKYYADSVKGRFTISRDNSKNTLYLQMNSLRAEDTAVYYCAKIGATDPLDYWGQGTLVTVSSGSASAPKLEEGEFSEARVQSALTQPASVSGSPGQSITISCTGTSNDIGAYNYVSWYQQHPGKAPKLLIYDVNNRPSGVSDRFSGSKSGNTASLTISGLQAEDEADYYCCSYAGSYSWVFGGGTKLTVLGQPKANPTVTLFPPSS
0.036 µg/mL | 50 ng/mL | 43.5 ng/mL | 0.472 | 0.36 | YU100-E04 (antibody) QVQLQQSGGGVVQPGRSLRLSCAASGFTFSSYGMHWVRQAPGKGLEWVAVISYDGSNKYYADSVKGRFTISRDNSKNTLYLQMNSLRAEDTAVYYCAKIGATDPLDYWGQGTLVTVSSGSASAPKLEEGEFSEARVQSALTQPRSVSGSPGQSVTISCTGTSSDVGGYNYVSWYQQHPGKTPKLMIYDVTKRPSGVPDHFSGSKSGNTASLTISGLQAEDEADYYCCSYAGSHIWVFGGGTKLTVLGQPKAAPSVTLFPPSS
0.027 µg/mL | 56.3 ng/mL | 50.2 ng/mL | 0.275 | 0.16 | YU100-E05 (antibody) EVQLVQSGGGVVQPGRSLRLSCAASGFTFSSYGMHWVRQAPGKGLEWVAVISYDGSNKYYADSVKGRFTISRDNSKNTLYLQMNSLRAEDTAVYYCAKIGATDPLDYWGQGTLVTVSSGSASAPKLEEGEFSEARVQAVLTQPRSVSGSPGQSVTISCTGTSSDVGGYNYVSWYQQHPGKAPKLMIYDVSKRPSGVPDRFSGSKSGNTASLTISGLQAEDEADYYCCSYAGSYSWVFGGGTKLTVLGQPKAAPSVTLFPPSS
0.024 µg/mL | 54.1 ng/mL | 48.2 ng/mL | 0.309 | 0.173 | YU100-E06 (antibody) QVQLVESGGGVVQPGRSLRLSCAASGFTFSSYGMHWVRQAPGKGLEWVAVISYDGSNKYYADSVKGRFTISRDNSKNTLYLQMNSLRAEDTAVYYCAKIGATDPLDYWGQGTLVTVSSGSASAPKLEEGEFSEARVQSALTQPASVSGFPEQSITISCTGTSSDVGGYDYVSWYQQHPGKAPKLMIYDVTNRPSGVSNRFSGSKSGNTASLTISGLQPEDEADYYCSSYTSNTTWVFGGGTKLTVLRQPKAAPSVTLFPPSS
